Measured values published in IntAct's records for PubMed 24968893.

B1: Serine/threonine-protein kinase ATG1 (Saccharomyces cerevisiae), P53104 (parent)
chain: MGDIKNKDHTTSVNHNLMASAGNYTAEKEIGKGSFATVYRGHLTSDKSQHVAIKEVSRAKLKNKKLLENLEIEIAILKKIKHPHIVGLIDCERTSTDFYLIMEYCALGDLTFLLKRRKELMENHPLLRTVFEKYPPPSENHNGLHRAFVLSYLQQLASALKFLRSKNLVHRDIKPQNLLLSTPLIGYHDSKSFHELGFVGIYNLPILKIADFGFARFLPNTSLAETLCGSPLYMAPEILNYQKYNAKADLWSVGTVVFEMCCGTPPFRASNHLELFKKIKRANDVITFPSYCNIEPELKELICSLLTFDPAQRIGFEEFFANKVVNEDLSSYELEDDLPELESKSKGIVESNMFVSEYLSKQPKSPNSNLAGHQSMADNPAELSDALKNSNILTAPAVKTDHTQAVDKKASNNKYHNSLVSDRSFEREYVVVEKKSVEVNSLADEVAQAGFNPNPIKHPTSTQNQNVLLNEQFSPNNQQYFQNQGENPRLLRATSSSSGGSDGSRRPSLVDRRLSISSLNPSNALSRALGIASTRLFGGANQQQQQQQITSSPPYSQTLLNSQLFHELTENIILRIDHLQHPETLKLDNTNIVSILESLAAKAFVVYSYAEVKFSQIVPLSTTLKGMANFENRRSMDSNAIAEEQDSDDAEEEDETLKKYKEDCLSTKTFGKGRTLSATSQLSATFNKLPRSEMILLCNEAIVLYMKALSILSKSMQVTSNWWYESQEKSCSLRVNVLVQWLREKFNECLEKADFLRLKINDLRFKHASEVAENQTLEEKGSSEEPVYLEKLLYDRALEISKMAAHMELKGENLYNCELAYATSLWMLETSLDDDDFTNAYGDYPFKTNIHLKSNDVEDKEKYHSVLDENDRIIIRKYIDSIANRLKILRQKMNHQN
partner: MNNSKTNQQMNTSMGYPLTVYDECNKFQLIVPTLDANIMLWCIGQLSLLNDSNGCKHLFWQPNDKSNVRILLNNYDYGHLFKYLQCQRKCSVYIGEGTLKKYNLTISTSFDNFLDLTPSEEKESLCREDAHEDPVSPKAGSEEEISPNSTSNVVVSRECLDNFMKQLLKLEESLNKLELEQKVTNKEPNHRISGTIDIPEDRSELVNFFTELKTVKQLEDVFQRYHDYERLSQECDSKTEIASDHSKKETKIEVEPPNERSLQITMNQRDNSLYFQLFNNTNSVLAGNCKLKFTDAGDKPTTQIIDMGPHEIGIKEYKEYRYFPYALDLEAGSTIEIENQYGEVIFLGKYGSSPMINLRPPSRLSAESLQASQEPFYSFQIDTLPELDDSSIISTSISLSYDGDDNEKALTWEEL
B2: Autophagy-related protein 19 (Saccharomyces cerevisiae), P35193 (parent)
chain: B1 partner
partner: B1 chain
B3: Autophagy-related protein 19 (Saccharomyces cerevisiae), P35193 (parent)
chain: B1 partner
partner: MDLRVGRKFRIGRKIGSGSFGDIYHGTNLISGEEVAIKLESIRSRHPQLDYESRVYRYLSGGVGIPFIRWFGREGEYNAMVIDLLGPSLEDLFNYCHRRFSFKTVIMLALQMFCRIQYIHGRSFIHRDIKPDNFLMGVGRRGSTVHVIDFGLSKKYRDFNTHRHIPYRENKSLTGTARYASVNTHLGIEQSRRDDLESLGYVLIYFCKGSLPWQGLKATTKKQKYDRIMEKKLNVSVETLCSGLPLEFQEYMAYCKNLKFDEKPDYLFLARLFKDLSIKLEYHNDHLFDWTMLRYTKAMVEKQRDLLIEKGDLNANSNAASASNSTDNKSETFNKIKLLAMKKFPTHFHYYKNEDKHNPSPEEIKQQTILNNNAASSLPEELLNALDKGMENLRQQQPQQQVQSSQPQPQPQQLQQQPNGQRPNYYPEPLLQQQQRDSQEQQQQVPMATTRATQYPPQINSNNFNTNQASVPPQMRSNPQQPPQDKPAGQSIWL
B4: Autophagy-related protein 19 (Saccharomyces cerevisiae), P35193 (parent)
chain: B1 partner
partner: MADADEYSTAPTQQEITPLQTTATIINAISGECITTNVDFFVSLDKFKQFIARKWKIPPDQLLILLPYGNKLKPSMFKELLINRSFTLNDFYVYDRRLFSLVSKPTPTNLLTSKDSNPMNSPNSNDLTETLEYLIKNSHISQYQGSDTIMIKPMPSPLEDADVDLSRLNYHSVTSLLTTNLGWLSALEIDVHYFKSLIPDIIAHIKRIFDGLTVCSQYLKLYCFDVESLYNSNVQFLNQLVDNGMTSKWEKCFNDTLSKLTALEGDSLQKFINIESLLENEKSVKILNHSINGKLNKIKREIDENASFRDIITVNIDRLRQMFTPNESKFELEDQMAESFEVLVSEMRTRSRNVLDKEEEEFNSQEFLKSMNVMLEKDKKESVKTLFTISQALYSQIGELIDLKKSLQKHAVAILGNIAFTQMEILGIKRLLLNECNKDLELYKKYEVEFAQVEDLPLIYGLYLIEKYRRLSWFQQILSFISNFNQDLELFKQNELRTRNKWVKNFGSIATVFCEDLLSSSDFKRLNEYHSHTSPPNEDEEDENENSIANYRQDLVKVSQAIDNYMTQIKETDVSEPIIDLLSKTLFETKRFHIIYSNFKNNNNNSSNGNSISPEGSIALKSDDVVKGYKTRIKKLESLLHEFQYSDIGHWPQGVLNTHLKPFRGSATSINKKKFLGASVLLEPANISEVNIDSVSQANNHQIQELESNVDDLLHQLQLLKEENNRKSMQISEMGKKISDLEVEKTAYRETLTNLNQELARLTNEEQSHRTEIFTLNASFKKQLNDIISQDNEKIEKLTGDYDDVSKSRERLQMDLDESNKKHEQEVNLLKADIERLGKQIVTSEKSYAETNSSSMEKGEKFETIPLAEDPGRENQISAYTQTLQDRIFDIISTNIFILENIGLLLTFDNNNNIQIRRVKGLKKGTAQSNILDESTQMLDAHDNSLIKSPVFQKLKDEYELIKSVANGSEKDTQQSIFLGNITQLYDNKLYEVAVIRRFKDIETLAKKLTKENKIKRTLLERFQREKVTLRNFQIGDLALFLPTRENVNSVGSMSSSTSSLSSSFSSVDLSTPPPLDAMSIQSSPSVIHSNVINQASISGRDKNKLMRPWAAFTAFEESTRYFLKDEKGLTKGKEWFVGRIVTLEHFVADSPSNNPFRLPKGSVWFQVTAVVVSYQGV

Variants of: B1
Conditions: with atg19_yeast ATG19, P35193

| effect of a mutation on the interaction | Variant |
| --- | --- |
| disrupting interaction | D211A |

Variants of: B2
Conditions: with atg1_yeast ATG1, P53104

| effect of a mutation on the interaction | Variant |
| --- | --- |
| disrupting interaction | S390A;S391A;S396A |

Variants of: B2
Conditions: with atg1_yeast ATG1, P53104
Remark: another data set of the same source

| effect of a mutation on the interaction | Variant |
| --- | --- |
| disrupting interaction | S390D;S391D;S396D |

Variants of: B3
Conditions: with hrr25_yeast HRR25, P29295

| effect of a mutation on the interaction | Variant |
| --- | --- |
| disrupting interaction | S390A;S391A;S396A |

Variants of: B4
Conditions: with atg11_yeast ATG11, Q12527

| effect of a mutation on the interaction | Variant |
| --- | --- |
| disrupting interaction | S390A;S391A;S396A |

Variants of: B4
Conditions: with atg11_yeast ATG11, Q12527
Remark: another data set of the same source

| effect of a mutation on the interaction | Variant |
| --- | --- |
| disrupting interaction | S390A;S391A;S396A |

Variants of: B4
Conditions: with atg11_yeast ATG11, Q12527
Remark: another data set of the same source

| effect of a mutation on the interaction | Variant |
| --- | --- |
| increasing interaction | S390D;S391D;S396D |
